Measurements reported in publication PMC3143299 (Journal of molecular biology, 2011).
“And” between values parts separate entries of the source, which are not always exact repeats. Equal entries are not always repeated.

Tests used:
cross-linking = target: the molecule itself; assay: cross-linking
[1] = target: actin purified from rabbit skeletal muscle (F-actin) (rabbit, UniProt P68135 1-377); assay: co-sedimentation

B1: recombinant full-length human FRG1 (His-tagged) (natural protein)
chain: not shown
**Q.** B1 was tested. Which “stoichiometry N” value (cross-linking) did it give?
**A.** 2 and 4

**Q.** What about the Kd [1] of the same binder?
**A.** 160 ± 30 nM

**Q.** And the “stoichiometry N” value [1]?
**A.** 2 FRG1 per actin monomer
